The target of this assay is T1, bovine serum albumin (bovine, UniProt P02769 25-607).
T1 construct: Unconjugated carrier protein used as a control antigen; also called BSA
The assay is described as follows: ELISA of soluble HC-V-myc supernatant on immobilised antigens, anti-myc detection. How it is done:
Commercially available strains such as TOPIOF (stratagene) and HB2151 (Pharmacia) may alternatively be used. Two transformants of each clone were pre-grown in 10 ml 2TY/Ampicillin/Glucose. After 3-4 hours of growth at 37° C. (OD₆₀₀=0.5), the cells were pelleted by centrifugation and resuspended in 5 ml 2TY/Ampicillin/IPTG (0.1 mM). After 24 hours of incubation at 25° C. the cultures were centrifuged, and the supernatants were analysed for the production of antigen binding activity in essential the same way as described in Example 3. In this case, however, the presence of specifically bound HC-V fragments was detected by incubation with monoclonal anti-myc antibodies, followed by incubation with poly-clonal rabbit-anti-mouse conjugate with alkaline phosphatase.
Another three clones (nR3, nR4 and nR8) were specific for RR6-BSA, but the signals observed were very low. […] This was confirmed by analysis of the supernatants on Western blots (FIG. 3B). The remaining 3 clones (nR6, nR9 and nR10) gave significant signals over background on RR6-BSA, BSA and E3G-OVA (FIG. 3A). It would appear that these three ‘sticky’ clones bind to immobilised proteins in general.

1 molecule from patent US20060147995A1 (UNILEVER PATENT HOLDINGS B V, published 2006) can be followed below.

T1 sequence (P02769 25-607 limits assumed): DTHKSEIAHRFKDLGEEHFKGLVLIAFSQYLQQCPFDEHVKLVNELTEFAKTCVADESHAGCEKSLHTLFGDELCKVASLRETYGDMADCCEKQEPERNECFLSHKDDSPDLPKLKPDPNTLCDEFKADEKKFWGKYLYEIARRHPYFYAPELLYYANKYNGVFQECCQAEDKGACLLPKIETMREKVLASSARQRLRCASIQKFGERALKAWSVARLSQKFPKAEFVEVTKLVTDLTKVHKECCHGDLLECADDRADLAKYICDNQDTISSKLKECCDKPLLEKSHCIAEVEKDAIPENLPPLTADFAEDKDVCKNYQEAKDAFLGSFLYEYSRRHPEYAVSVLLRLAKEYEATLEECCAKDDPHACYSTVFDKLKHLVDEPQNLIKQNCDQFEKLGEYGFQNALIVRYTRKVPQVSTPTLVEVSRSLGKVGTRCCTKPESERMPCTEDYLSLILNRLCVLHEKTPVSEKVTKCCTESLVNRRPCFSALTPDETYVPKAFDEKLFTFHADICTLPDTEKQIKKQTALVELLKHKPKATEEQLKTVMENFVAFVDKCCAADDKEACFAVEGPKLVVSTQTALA

B1: nR11 (VHH)
VHH: QVQLQESGGGLVQPGDFVRLSCAASRRASSTYAVGWFRQAPGKEREFVGRIHRGGGSTYYADSVKGRFTISRDNTQNTVYLQMNSLKPEDTAVYYCNVRSYWGQGTQVTVSS
notes: Llama HC-V tested as soluble HC-V-myc in crude culture supernatant; also called anti-RR6 HC-V fragment nR11; HC-V-myc
Consider B1, for which the binding result is reported as “no binding”.
